Test results from PMC9935901, “B-lymphoid tyrosine kinase-mediated FAM83A phosphorylation elevates pancreatic tumorigenesis through interacting with β-catenin” (Signal Transduction and Targeted Therapy, 2023).
Entries after “also recorded” stand apart in the source; their conditions may differ.

B1: GFP-FaP2: FaP2 fused with GFP via a flexible linker ((GGGGS)n), pEGFP-C1 expression vector, transfected (protein)
chain: ASAEKPYLKEKSSATVYFQTVKHNNIRDLVRRCITRTSQVLVILMDVFTDVEIFCDILEAANKRGVFVCVLLDQGGVKLFQEMCDKVQISDSHLKNISIRSVEGEIYCAKSGRKFAGQIREKFIISDWRFVLSGSYSFTWLCGHVHRNILSKFTGQAVELFDEEFRHLYASSKPVMGLKSPRL
modifications: left off: EGFP (from the vector pEGFP-C1), end not stated, kept
notes: FaP2 fused with GFP via a flexible linker ((GGGGS)n), pEGFP-C1 expression vector, transfected
B2: GFP-FaP3: FaP3 fused with GFP via a flexible linker ((GGGGS)n), pEGFP-C1 expression vector, transfected (protein)
chain: B1 chain
modifications: left off: EGFP (from the vector pEGFP-C1), end not stated, kept
notes: FaP3 fused with GFP via a flexible linker ((GGGGS)n), pEGFP-C1 expression vector, transfected
B3: Wnt3a: Wnt agonist, Abcam ab153563 (protein, UniProt P56704 19-352, looked up)
Protein Wnt-3a: SYPIWWSLAVGPQYSSLGSQPILCASIPGLVPKQLRFCRNYVEIMPSVAEGIKIGIQECQHQFRGRRWNCTTVHDSLAIFGPVLDKATRESAFVHAIASAGVAFAVTRSCAEGTAAICGCSSRHQGSPGKGWKWGGCSEDIEFGGMVSREFADARENRPDARSAMNRHNNEAGRQAIASHMHLKCKCHGLSGSCEVKTCWWSQPDFRAIGDFLKDKYDSASEMVVEKHRESRGWVETLRPRYTYFKVPTERDLVYYEASPNFCEPNPETGSFGTRDRTCNVSSHGIDGCDLLCCGRGHNARAERRREKCRCVFHWCCYVSCQECTRVYDVHTCK

Tests used:
[1] = tested on: β-catenin destruction complex; test: Co-IP, β-catenin with AXIN1 and GSK3β in PANC-1 cells; assay type: cell-based, human; settings: peptide treatment or GFP-fusion transfection, n = 3
β-catenin stability = test: β-catenin protein stability upon CHX treatment in PANC-1 cells; assay type: cell-based, human; settings: peptide treatment or GFP-fusion transfection, n = 3
Procedure: Fig. 8 Peptides disrupting FAM83A-β-catenin interaction inhibit Wnt/β-catenin signaling. a Identification of β-catenin binding α-helical peptide(s) in FAM83A DUF1669 (140aa–210aa) region. The secondary structure of the FAM83A DUF1669 (140aa–210aa) region was analyzed based on the PDB data (4urj). b The FaPC, FaP1, FaP2, and FaP3 fragments were constructed into pEGFP-C1 expression vector connection with a flexible linker ((GGGGS)n). The interactions between β-catenin and the four fragments were evaluated with Co-IP assays in HEK293T cells (n = 3). c, d The predicted docking model of FaP2, FaP3 with β-catenin 530–666 aa region. e, f Kinetic interactions of cell-penetrating peptide TAT-linked peptides with β-catenin was determined by surface plasmon resonance analyses. g Effect of CP-FaP2 and CP-FaP3 on β-catenin-FAM83A and β-catenin-TCF4 interactions in PANC-1 cells. Cells were treated with control (CP-FaPC), CP-FaP2, and CP-FaP3 (5 μM) for 24 hours. Cell lysates were used for IP and western blotting with the indicated antibodies (n = 3). h The schematic diagram of 7TGC plasmid construction and the fluorescence images of PANC-1 cells with control, CP-FaP2, and CP-FaP3 treatment. […]

[2] = tested on: β-catenin ubiquitination (HEK293T cells); test: β-catenin ubiquitination in HEK293T cells; assay type: cell-based; settings: GFP-fusion transfection, n = 3
FAM83A localization = test: FAM83A nuclear translocation upon Wnt3a treatment; assay type: cell-based; settings: confocal microscopy, nucleo-plasmic separation; Wnt3a 100 ng/mL; HEK293T, PANC-1
Procedure: Protein interactions were analyzed by western blotting (n = 3). Scale bars: 10 µm. *P < 0.05; **P < 0.01; ***P < 0.001. Data were presented as mean ± SD
Protein interactions were analyzed by western blotting (n = 3). c The level of β-catenin ubiquitination with or without Flag-tagged FAM83A overexpression or BLK kinase knockdown after MG132 treatment in HEK293T cells. Cell lysates were used for IP and western blotting with the indicated antibodies (n = 3). d The level of β-catenin ubiquitination with or without Flag-tagged FAM83A, Y138A, or Y138D mutants overexpression after MG132 treatment in HEK293T cells. […] Cell lysates were used for IP and western blotting with the indicated antibodies (n = 3). f The localization of Flag-tagged FAM83A and its Y138A, Y138D mutants in HEK293T cells were analyzed with confocal microscopy. g The protein level of cytoplasmic and nuclear β-catenin in HEK293T cells with or without Flag-tagged FAM83A, Y138A, or Y138D mutants transfection and Wnt3a treatment. […]

FAM83A expression = FAM83A expression after Wnt3a treatment in PANC-1 cells; assay type: cell-based, human
From the text: Fig. 7 FAM83A is a direct downstream target of Wnt/β-catenin signaling and forms positive feedback in pancreatic cancer cells. a–d Representative western blotting images of the protein and mRNA levels of FAM83A after Wnt3a treatment for indicated concentrations and times in PANC-1 cells (n = 3). e, f The protein and mRNA levels of FAM83A after β-catenin knockdown in PANC-1 cells. Cell lysates were used for western blotting with the indicated antibodies (n = 3). g FAM83A gene promoter-reporter luciferase activity in HEK293T cells with or without β-catenin overexpression (left) and PANC-1 cells with or without β-catenin knockdown (right) (n = 6). h The schematic diagram of FAM83A gene promoter truncation and deletion generation. i PACN-1 cells were subjected to chromatin immunoprecipitation using antibodies against TCF4 and IgG, and the fold change of TCF/IgG was quantified (n = 3). j Predicted TCF4/LEF-binding sequence in the FAM83A gene promoter from the JASPAR website. k Schematic diagram of the generated luciferase report plasmids and the relative luciferase activity after transfection with the plasmids in HEK293T cells with or without Wnt3a treatment (n = 6). l A ChIP experiment was used to detect binding between the β-catenin-TCF4 complex and the predicted TCF/LEF-binding element in the FAM83A promoter (TBE1 and TBE2). […]

| Molecule | assembly of β-catenin destruction complex [1] | stability of β-catenin (β-catenin stability) | β-catenin ubiquitination [2] | FAM83A nuclear translocation (FAM83A localization) | FAM83A mRNA level (FAM83A expression) | FAM83A protein level (FAM83A expression; n = 3) |
| --- | --- | --- | --- | --- | --- | --- |
| B1 | improved | decreased | improved |  |  |  |
| B2 | improved | decreased | improved |  |  |  |
| B3 |  |  |  | FAM83A shifted from the cell cytoplasm to nucleus upon Wnt3a treatment; also recorded: increased the nuclear translocation of FAM83A | elevated both the protein and mRNA levels of FAM83A in dose- and time-dependent manners | elevated both the protein and mRNA levels of FAM83A in dose- and time-dependent manners |
